Test results as given in patent publication US20260062447A1 (UNIVERSITY OF SOUTHAMPTON, published 2026).

Legend:
[1] = biological target: HIF-1 three-domain protein; assay: cell-based or functional assay
HIF-1α PAS-B domain [2] = biological target: T1, HIF-1α PAS-B domain (UniProt Q16665 238-349, limits assumed, labelled for MST (label not named)); assay: MST (microscale thermophoresis), labelled HIF-1α PAS-B [part 3 of 5]
T1 construct: domain: PAS-B; 25 nM labelled protein in the assay; also called HIF-1α PAS-B protein; labelled HIF-1α PAS-B
Description: (§1) An aliquot of labelled HIF-1α PAS-B was thawed on ice and diluted to 50 nM with HIF MST assay buffer, before being centrifuged at 12,000 rpm for 15 minutes. […] Samples were loaded into NanoTemper® Monolith NT.115 premium treated capillaries and measurements were carried out using a Monolith NT.115 system at 25° C. using 50% MST power and 50% LED power. Data was analysed by NanoTemper® analysis software. Binding curves were fitted using GraphPad Prism 8 software.

HIF-1α PAS-B domain [3] = biological target: T1, HIF-1α PAS-B domain; assay: MST (microscale thermophoresis), labelled HIF-1α PAS-B [part 3 of 14) B]
Description: as §1

HIF-1α PAS-B domain [4] = biological target: T1, HIF-1α PAS-B domain; assay: MST (microscale thermophoresis), labelled HIF-1α PAS-B [part 4 of 5]
Description: as §1

T1 sequence (Q16665 238-349 limits assumed): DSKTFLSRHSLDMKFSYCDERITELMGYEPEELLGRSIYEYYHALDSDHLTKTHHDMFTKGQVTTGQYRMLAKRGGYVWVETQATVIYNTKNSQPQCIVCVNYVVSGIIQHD

## CLLFVY (cyclic peptide (cyclo-)) [cyclo-CLLFVY (Cys leu leu phe val tyr)]
[1]
  IC50 of inhibition of FAM-HRE DNA binding (fluorescence polarization): 76.5 µM

B1: cyclic peptide Thr leu leu phe val tyr (peptide)
peptide: TLLFVY
modifications: cyclic peptide
notes: Comparative purposes only; also called T (threonine) cysteine derivative
HIF-1α PAS-B domain [2]
  binding result: no binding

B2: cyclic peptide Ser leu leu phe val tyr (peptide)
peptide: SLLFVY
modifications: cyclic peptide
notes: Comparative purposes only; also called S (serine) cysteine derivative
HIF-1α PAS-B domain [2]
  binding result: no binding

B3: Cyclo-CLLYVY (peptide)
cyclic peptide: CLLYVY
modifications: cyclic (cyclo-) peptide
notes: also called Y derivative at the phenylalanine position; Cys leu leu tyr val tyr
HIF-1α PAS-B domain [3]
  Kd: > 200 µM

B4: cyclic peptide Met leu leu phe val tyr (peptide)
peptide: MLLFVY
modifications: cyclic peptide
notes: Comparative purposes only; also called M (methionine) cysteine derivative
HIF-1α PAS-B domain [4]
  binding result: no binding
